In US11278600B2, “Human alpha-galactosidase variants” (Codexis, Inc., priority 2014, dated 2022):
Numbering of substitutions follows the chain as printed.

B1: 58 (protein)
chain: LDNGLARTPTMGWLHWERFMCNLDCQEEPDSCISEKLFMEMAELMVSEGWKDAGYEYLCIDDCWMAPQRDSEGRLQADPQRFPHGIRQLANYVHSKGLKLGIYADVGNKTCAGFPGSFGYYDIDAQTFADWGVDLLKFDGCYCDSLENLADGYKHMSLALNRTGRSIVYSCEWPLYMWPFQKPNYTEIRQYCNHWRNFADIDDSWKSIKSILDWTSFNQERIVDVAGPGGWNDPDMLVIGNFGLSWNQQVTQMALWAIMAAPLFMSNDLRHISPQAKALLQDKDVIAINQDPLGKQGYQLRQGDNFEVWERPLSGLAWAVAMINRQEIGGPRSYTIAVASLGKGVACNPACFITQLLPVKRKLGLYEWTSRLRSHINPTGTVLLQLENTMQMSKDLLL
modifications: Synthetic Polypeptide sequence of Variant No. 58 of mature Human GLA
B2: 70 (protein)
chain: B1 chain with I102L, L365F, K394V
modifications: Synthetic Polypeptide sequence of Variant No. 70 of mature Human GLA
B3: 63 (protein)
chain: B1 chain with H155A, L365F
modifications: Synthetic Polypeptide sequence of Variant No. 63 of mature Human GLA
B4: 65 (protein)
chain: B1 chain with H155R, L365F
modifications: Synthetic Polypeptide sequence of Variant No. 65 of mature Human GLA
B5: 71 (protein)
chain: B1 chain with I123T, L365F, T369N
modifications: Synthetic Polypeptide sequence of Variant No. 71 of mature Human GLA
B6: 59 (protein)
chain: B1 chain with L365R
modifications: Synthetic Polypeptide sequence of Variant No. 59 of mature Human GLA
B7: 67 (protein)
chain: B1 chain with H155E, L365F
modifications: Synthetic Polypeptide sequence of Variant No. 67 of mature Human GLA
B8: 62 (protein)
chain: B1 chain with G303Q, L365F, R373V
modifications: Synthetic Polypeptide sequence of Variant No. 62 of mature Human GLA
B9: 72 (protein)
chain: B1 chain with I167V, L365F
modifications: Synthetic Polypeptide sequence of Variant No. 72 of mature Human GLA
B10: 66 (protein)
chain: B1 chain with H155T, L365F
modifications: Synthetic Polypeptide sequence of Variant No. 66 of mature Human GLA
B11: 73 (protein)
chain: B1 chain with K206A, L365F, K394L, D395K, L396D
modifications: Synthetic Polypeptide sequence of Variant No. 73
B12: 68 (protein)
chain: B1 chain with H84S, L365F
modifications: Synthetic Polypeptide sequence of Variant No. 68 of mature Human GLA
B13: 61 (protein)
chain: B1 chain with L365V
modifications: Synthetic Polypeptide sequence of Variant No. 61 of mature Human GLA
B14: 69 (protein)
chain: B1 chain with I102L, L365F
modifications: Synthetic Polypeptide sequence of Variant No. 69 of mature Human GLA
B15: 64 (protein)
chain: B1 chain with H155L, L365F
modifications: Synthetic Polypeptide sequence of Variant No. 64 of mature Human GLA
B16: 60 (protein)
chain: B1 chain with L365T
modifications: Synthetic Polypeptide sequence of Variant No. 60 of mature Human GLA

What was measured:
Assay type in all cases: biochemical
[1] = HTP-analysis of yeast culture supernatants, no challenge (MUGal hydrolysis); conditions: activity of the variant/activity of WT GLA (SEQ ID NO: 5), yeast supernatant
Outline: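 GLA variants expressed in yeast INVSc1, secreted into SD-Ura broth over 66-84 h at 30° C; clarified supernatants tested without challenge. Supernatant mixed with McIlvaine buffer pH 4.8 and 2 mM MUGal (citrate/KCl, pH 4.6), 37° C for 30-180 min, carbonate-quenched, fluorescence Ex 355/Em 448 nm.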

[2] = HTP-analysis of supernatants pretreated with acid (MUGal hydrolysis); conditions: challenge at pH 4.2; activity of the variant/activity of WT GLA (SEQ ID NO: 5); yeast supernatant
Outline: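 Yeast INVSc1 supernatant, GLA variants; acid challenge: McIlvaine pH 3.3-4.3, 37° C., 1-3 h. Assay: MUGal in McIlvaine pH 4.8 plus citrate pH 4.3, 37° C., 30-180 min, Na2CO3 stop, Ex 355/Em 448 nm.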

[3] = HTP-analysis of supernatants pretreated with base (MUGal hydrolysis); conditions: challenge at pH 7.1; activity of the variant/activity of WT GLA (SEQ ID NO: 5); yeast supernatant
Outline: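 GLA variants were secreted by transformed INVSc1 yeast grown 66-84 h at 30° C. Supernatants were exposed to neutral-to-basic buffers (pH 7.0-9.7) at 37° C for 1-18 h, then assayed with MUGal in acidic citrate/McIlvaine buffer, with fluorescence read after quenching.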

Molecule	Relative Activity of GLA Variants After No Challenge (NC) [1]	Relative Activity of GLA Variants After Challenge at pH 4.2 [2]	Relative Activity of GLA Variants After Challenge at pH 7.1 [3]
B1	++ (++ = >1.5 to 2.5 relative activity over WT GLA (SEQ ID NO: 5))	++ (++ = >1.5 to 2.5 relative activity over WT GLA (SEQ ID NO: 5))	++ (++ = >1.5 to 2.5 relative activity over WT GLA (SEQ ID NO: 5))
B2	+ (+ = 0.5 to 1.5 relative activity over WT GLA (SEQ ID NO: 5))	+ (+ = 0.5 to 1.5 relative activity over WT GLA (SEQ ID NO: 5))	+ (+ = 0.5 to 1.5 relative activity over WT GLA (SEQ ID NO: 5))
B3	+ (+ = 0.5 to 1.5 relative activity over WT GLA (SEQ ID NO: 5))	+ (+ = 0.5 to 1.5 relative activity over WT GLA (SEQ ID NO: 5))	++ (++ = >1.5 to 2.5 relative activity over WT GLA (SEQ ID NO: 5))
B4	+ (+ = 0.5 to 1.5 relative activity over WT GLA (SEQ ID NO: 5))	+ (+ = 0.5 to 1.5 relative activity over WT GLA (SEQ ID NO: 5))	+ (+ = 0.5 to 1.5 relative activity over WT GLA (SEQ ID NO: 5))
B5	++ (++ = >1.5 to 2.5 relative activity over WT GLA (SEQ ID NO: 5))	+ (+ = 0.5 to 1.5 relative activity over WT GLA (SEQ ID NO: 5))	++ (++ = >1.5 to 2.5 relative activity over WT GLA (SEQ ID NO: 5))
B6	+ (+ = 0.5 to 1.5 relative activity over WT GLA (SEQ ID NO: 5))	+ (+ = 0.5 to 1.5 relative activity over WT GLA (SEQ ID NO: 5))	+ (+ = 0.5 to 1.5 relative activity over WT GLA (SEQ ID NO: 5))
B7	++ (++ = >1.5 to 2.5 relative activity over WT GLA (SEQ ID NO: 5))	+ (+ = 0.5 to 1.5 relative activity over WT GLA (SEQ ID NO: 5))	++ (++ = >1.5 to 2.5 relative activity over WT GLA (SEQ ID NO: 5))
B8	++ (++ = >1.5 to 2.5 relative activity over WT GLA (SEQ ID NO: 5))	+ (+ = 0.5 to 1.5 relative activity over WT GLA (SEQ ID NO: 5))	++ (++ = >1.5 to 2.5 relative activity over WT GLA (SEQ ID NO: 5))
B9	+ (+ = 0.5 to 1.5 relative activity over WT GLA (SEQ ID NO: 5))	+ (+ = 0.5 to 1.5 relative activity over WT GLA (SEQ ID NO: 5))	+ (+ = 0.5 to 1.5 relative activity over WT GLA (SEQ ID NO: 5))
B10	+ (+ = 0.5 to 1.5 relative activity over WT GLA (SEQ ID NO: 5))	+ (+ = 0.5 to 1.5 relative activity over WT GLA (SEQ ID NO: 5))	+ (+ = 0.5 to 1.5 relative activity over WT GLA (SEQ ID NO: 5))
B11	+ (+ = 0.5 to 1.5 relative activity over WT GLA (SEQ ID NO: 5))	+++ (+++ = >2.5 relative activity over WT GLA (SEQ ID NO: 5))	++ (++ = >1.5 to 2.5 relative activity over WT GLA (SEQ ID NO: 5))
B12	+ (+ = 0.5 to 1.5 relative activity over WT GLA (SEQ ID NO: 5))	++ (++ = >1.5 to 2.5 relative activity over WT GLA (SEQ ID NO: 5))	+ (+ = 0.5 to 1.5 relative activity over WT GLA (SEQ ID NO: 5))
B13	++ (++ = >1.5 to 2.5 relative activity over WT GLA (SEQ ID NO: 5))	++ (++ = >1.5 to 2.5 relative activity over WT GLA (SEQ ID NO: 5))	++ (++ = >1.5 to 2.5 relative activity over WT GLA (SEQ ID NO: 5))
B14	+ (+ = 0.5 to 1.5 relative activity over WT GLA (SEQ ID NO: 5))	+ (+ = 0.5 to 1.5 relative activity over WT GLA (SEQ ID NO: 5))	+ (+ = 0.5 to 1.5 relative activity over WT GLA (SEQ ID NO: 5))
B15	+ (+ = 0.5 to 1.5 relative activity over WT GLA (SEQ ID NO: 5))	+ (+ = 0.5 to 1.5 relative activity over WT GLA (SEQ ID NO: 5))	++ (++ = >1.5 to 2.5 relative activity over WT GLA (SEQ ID NO: 5))
B16	+ (+ = 0.5 to 1.5 relative activity over WT GLA (SEQ ID NO: 5))	+ (+ = 0.5 to 1.5 relative activity over WT GLA (SEQ ID NO: 5))	+ (+ = 0.5 to 1.5 relative activity over WT GLA (SEQ ID NO: 5))
